According to PMC12449476, “Transient ligand contacts of the intrinsically disordered N-terminus of neuropeptide Y2 receptor regulate arrestin-3 recruitment” (Nature Communications, 2025):

Experiments:
WT Nluc-Y2R-eYFP [1] = target: T1, WT Nluc-Y2R-eYFP (Homo sapiens, UniProt P49146); assay: NanoBRET equilibrium ligand binding
T1 construct: expressed in transfected cells; host or cells: membrane preparations of transiently transfected HEK293
T1 sequence (P49146 1-381): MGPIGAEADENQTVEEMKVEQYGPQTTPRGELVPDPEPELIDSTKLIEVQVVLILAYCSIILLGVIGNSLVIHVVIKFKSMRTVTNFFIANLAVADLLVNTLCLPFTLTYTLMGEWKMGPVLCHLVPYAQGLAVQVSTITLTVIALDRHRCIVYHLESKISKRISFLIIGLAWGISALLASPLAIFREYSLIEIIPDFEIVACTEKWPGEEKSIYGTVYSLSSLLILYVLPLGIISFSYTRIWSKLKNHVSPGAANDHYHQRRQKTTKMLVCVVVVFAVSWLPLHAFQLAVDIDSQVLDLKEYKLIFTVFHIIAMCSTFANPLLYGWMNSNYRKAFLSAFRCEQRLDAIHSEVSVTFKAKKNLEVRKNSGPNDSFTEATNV
Experimental: Briefly, for each data point, membranes containing 0.03 μg total protein were suspended in ice-cold BRET binding buffer (Hank’s balanced salt solution (HBSS) containing 20 mM HEPES (pH 7.4), 0.1% bovine serum albumin (BSA)). The assay was performed in solid black 96-WP with a total assay volume of 100 μL in technical duplicate or triplicate. […] Raw BRET was calculated as the ratio of fluorescence to luminescence, and the background value of the unspecific binding controls was subtracted to obtain the netBRET signal.

Nluc-Y2R-eYFP Δ2-41 = target: T2, Nluc-Y2R-eYFP Δ2-41 (Homo sapiens, UniProt P49146); assay: NanoBRET ligand dissociation; type: binding; conditions: koff
T2 construct: expressed in transfected cells; host or cells: membrane preparations of transiently transfected HEK293
T2 sequence (P49146 with tags, fused parts or gaps): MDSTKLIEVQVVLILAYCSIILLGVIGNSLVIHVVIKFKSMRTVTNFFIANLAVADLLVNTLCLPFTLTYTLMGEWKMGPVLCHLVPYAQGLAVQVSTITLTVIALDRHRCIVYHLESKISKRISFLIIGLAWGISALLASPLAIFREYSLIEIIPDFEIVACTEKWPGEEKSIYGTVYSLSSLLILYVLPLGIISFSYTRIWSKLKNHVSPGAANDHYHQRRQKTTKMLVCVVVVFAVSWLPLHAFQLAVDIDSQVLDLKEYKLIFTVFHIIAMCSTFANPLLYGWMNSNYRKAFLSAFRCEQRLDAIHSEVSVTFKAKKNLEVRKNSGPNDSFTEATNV
Experimental: Briefly, for each data point, membranes containing 0.03 μg total protein were suspended in ice-cold BRET binding buffer (Hank’s balanced salt solution (HBSS) containing 20 mM HEPES (pH 7.4), 0.1% bovine serum albumin (BSA)). The assay was performed in solid black 96-WP with a total assay volume of 100 μL in technical duplicate or triplicate. […] To determine unspecific binding, 100 µM of the Y2R antagonist JNJ-31020028 (Selleck Europe) were added to each well. […] To start the dissociation measurement, the antagonist JNJ-31020028 was added to a final concentration of 50 µM (20 µL) using the built-in injector system of the plate reader and the BRET decay was measured for 20 min. Raw BRET was calculated as the ratio of fluorescence to luminescence, and the background value of the unspecific binding controls was subtracted to obtain the netBRET signal.

WT Nluc-Y2R-eYFP [2] = target: T1, WT Nluc-Y2R-eYFP; conditions: cited from earlier work
Description: In the following, we are addressing the Reviewer’s comments point‐by‐point. We quote statements from the Reviewer in bold face. We refer to changes made in the manuscript in yellow italics. Reviewer #1 (Remarks to the Author): In this work ...

## K18-Tamra-NPY: tetramethylrhodamine(Tamra)-labeled peptide (K^18-Tamra-NPY)
WT Nluc-Y2R-eYFP [1]; HEK293 membranes, 10 min RT, mean, 95% CI 0.0273 to 0.0311
  BRETmax: 0.0292
WT Nluc-Y2R-eYFP [1]; mean, 95% CI 0.0352 to 0.0881
  Fraction high affinity: 0.0617
WT Nluc-Y2R-eYFP [1]; replicate 1
  KD, high replicates (log): -9.88
  KD, low replicates (log): -6.52
WT Nluc-Y2R-eYFP [1]; replicate 2
  KD, high replicates (log): -9.40
  KD, low replicates (log): -6.56
WT Nluc-Y2R-eYFP [1]; replicate 3
  KD, high replicates (log): -9.43
  KD, low replicates (log): -6.54
Nluc-Y2R-eYFP Δ2-41
  Increase of ligand dissociation vs wild-type: two to three-fold
WT Nluc-Y2R-eYFP [2]; G-protein-dependent high-affinity state
  KD,high: subnanomolar
WT Nluc-Y2R-eYFP [2]; G-protein-independent low-affinity state
  Kd: ~0.3 µM
